Consider two molecules from publication PMC11381544 (Nature Communications, 2024).

This assay deals with CRTAP. Nature of the assay: Strep-tactin pulldown, P3H1 mutants with CRTAP. The note with it: P3H1 mutations at the X-interface, Fig. 2g. It is filed as binding, human.

Residue numbers refer to the chain shown, from its start. In names and notes the source's numbering stands.

B1: D106A/D^P3H1 (protein, UniProt Q32P28 23-736, looked up, variant D106A)
Prolyl 3-hydroxylase 1: EVESEAGWGMVTPDLLFAEGTAAYARGDWPGVVLSMERALRSRAALRALRLRCRTQCAADFPWELDPDWSPSPAQASGAAALRALSFFGGLLRRAACLRRCLGPPAAHSLSEEMELEFRKRSPYNYLQVAYFKINKLEKAVAAAHTFFVGNPEHMEMQQNLDYYQTMSGVKEADFKDLETQPHMQEFRLGVRLYSEEQPQEAVPHLEAALQEYFVAYEECRALCEGPYDYDGYNYLEYNADLFQAITDHYIQVLNCKQNCVTELASHPSREKPFEDFLPSHYNYLQFAYYNIGNYTQAVECAKTYLLFFPNDEVMNQNLAYYAAMLGEEHTRSIGPRESAKEYRQRSLLEKELLFFAYDVFGIPFVDPDSWTPEEVIPKRLQEKQKSERETAVRISQEIGNLMKEIETLVEEKTKESLDVSRLTREGGPLLYEGISLTMNSKLLNGSQRVVMDGVISDHECQELQRLTNVAATSGDGYRGQTSPHTPNEKFYGVTVFKALKLGQEGKVPLQSAHLYYNVTEKVRRIMESYFRLDTPLYFSYSHLVCRTAIEEVQAERKDDSHPVHVDNCILNAETLVCVKEPPAYTFRDYSAILYLNGDFDGGNFYFTELDAKTVTAEVQPQCGRAVGFSSGTENPHGVKAVTRGQRCAIALWFTLDPRHSERDRVQADDLVKMLFSPEEMDLSQEQPLDAQQGPPEPAQESLSGSESKPKDEL
For the molecule B1, the “formation of the PCP complex” value was “significantly decrease the formation of the PCP complex”.

B2: R76D^P3H1 (protein)
chain: B1 Prolyl 3-hydroxylase 1 with R54D, A84D
B2: the “formation of the PCP complex” value is reported as “significantly decrease the formation of the PCP complex”.
